Data: patent publication US20070059320A1 (HOSPITAL FOR SICK CHILDREN, published 2007)
Ends that are not written are not given here.

T1: potassium channel Kv3.1, native protein in PSD preparations (rat, UniProt P25122 1-585)
T1 sequence (looked up): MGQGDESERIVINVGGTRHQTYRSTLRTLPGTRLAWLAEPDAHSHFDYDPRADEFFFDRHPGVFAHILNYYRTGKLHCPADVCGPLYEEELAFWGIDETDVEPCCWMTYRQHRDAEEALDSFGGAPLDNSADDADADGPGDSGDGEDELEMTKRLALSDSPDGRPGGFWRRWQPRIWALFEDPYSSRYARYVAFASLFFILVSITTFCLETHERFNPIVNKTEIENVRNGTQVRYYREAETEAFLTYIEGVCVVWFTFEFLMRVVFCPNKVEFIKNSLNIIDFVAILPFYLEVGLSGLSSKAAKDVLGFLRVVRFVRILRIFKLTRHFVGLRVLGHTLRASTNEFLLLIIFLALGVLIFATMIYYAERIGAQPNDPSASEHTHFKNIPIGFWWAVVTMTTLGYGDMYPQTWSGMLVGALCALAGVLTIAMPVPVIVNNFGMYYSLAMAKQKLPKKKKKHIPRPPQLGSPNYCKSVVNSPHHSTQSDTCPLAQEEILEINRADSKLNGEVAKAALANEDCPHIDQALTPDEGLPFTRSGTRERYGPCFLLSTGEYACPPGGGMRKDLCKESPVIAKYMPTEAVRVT

B1: ND2.2-GST fusion protein (amino acids 189-238 of human ND2) (other)
chain: WMMAVLPYNPNMTILNLTIYIILTTTAFLLLNLNSSTTTLLLSRTWNKLT
modifications: also: fused to GST tag of pGEX vector, sequence and linker not given here
notes: not shown: glutathione S-transferase (GST) tag of vector pGEX4T-1
B2: NADH dehydrogenase subunit 2 (ND2), native protein in brain lysates, PSD preparations, hippocampal neurons and tissues (other, UniProt P11662 1-346, looked up)
chain: MNPITLIIIYFTILMGPVITMSSSNLLLMWVGLEMSLLAIIPLLANKKSPRSTEAATKYFLTQATASMIILLVIILNYKQSGMWTLQQQTNNMLLNMMLISLAMKLGLAPFHYWLPEVTQGIPLHIGLILLTWQKIAPLSILYQFYQLLNPTITTILAISSVFVGAWGGLNQTQTRKIMAYSSIAHMGWMTAILPYNPNLTLLNLTIYILLTVPMFITLMTNSATTINTLSLAWNKTPMILTMTSIILLSLGGLPPLTGFLPKWAIISELLKNNCSTLSTLMAIMALLSLFFYTRLIYSMSLTMFPTNNNSKMISHHHQNPKHNFILPTLTVLSTLTLPLSSQLIT
B3: ND2.3-GST fusion protein (amino acids 1-188 of human ND2) (other)
chain: MNPLAQPVIYSTIFAGTLITALSSHWFFTWVGLEMNMLAFIPVLTKKMNPRSTEAAIKYFLTQATASMILLMAILFNNMLSGQWTMTNTTNQYSSLMIMMAMAMKLGMAPFHFWVPEVTQGTPLTSGLLLLTWQKLAPISIMYQISPSLNVSLLLTLSILSIMAGSWGGLNQTQLRKILAYSSITHMG
notes: as for B1

Columns and labels:
[1] = target: T2, recombinant Src unique domain (biotinylated probe) (murine (n-Src), UniProt P12931 5-83 (human entry), biotinylated); experiment: blot of ND2-GST fusion proteins probed with biotinylated Src unique domain, streptavidin-HRP
T2 construct: also called unique domain of Src; Src unique domain protein; not shown: GST tag of vector pGEX2T'6; purified as GST fusion protein

[2] = target: non-receptor tyrosine kinase Src, native protein in brain lysates, PSD preparations, hippocampal neurons and … (rat, UniProt Q9WUD9 2-536, limits assumed); experiment: GST pull-down from PSD preparations, immunoblot
[3] = target: T3, GluR2, native protein in PSD preparations (rat, UniProt P19491 22-883, limits assumed); experiment: co-immunoprecipitation from PSD preparations with anti-GluR2, probed with anti-ND2
T3 construct: also called AMPA receptor complex

[4] = target: T1, potassium channel Kv3.1, native protein …; experiment: co-immunoprecipitation from PSD preparations with anti-Kv3.1, probed with anti-ND2

T3 sequence (P19491 22-883 limits assumed): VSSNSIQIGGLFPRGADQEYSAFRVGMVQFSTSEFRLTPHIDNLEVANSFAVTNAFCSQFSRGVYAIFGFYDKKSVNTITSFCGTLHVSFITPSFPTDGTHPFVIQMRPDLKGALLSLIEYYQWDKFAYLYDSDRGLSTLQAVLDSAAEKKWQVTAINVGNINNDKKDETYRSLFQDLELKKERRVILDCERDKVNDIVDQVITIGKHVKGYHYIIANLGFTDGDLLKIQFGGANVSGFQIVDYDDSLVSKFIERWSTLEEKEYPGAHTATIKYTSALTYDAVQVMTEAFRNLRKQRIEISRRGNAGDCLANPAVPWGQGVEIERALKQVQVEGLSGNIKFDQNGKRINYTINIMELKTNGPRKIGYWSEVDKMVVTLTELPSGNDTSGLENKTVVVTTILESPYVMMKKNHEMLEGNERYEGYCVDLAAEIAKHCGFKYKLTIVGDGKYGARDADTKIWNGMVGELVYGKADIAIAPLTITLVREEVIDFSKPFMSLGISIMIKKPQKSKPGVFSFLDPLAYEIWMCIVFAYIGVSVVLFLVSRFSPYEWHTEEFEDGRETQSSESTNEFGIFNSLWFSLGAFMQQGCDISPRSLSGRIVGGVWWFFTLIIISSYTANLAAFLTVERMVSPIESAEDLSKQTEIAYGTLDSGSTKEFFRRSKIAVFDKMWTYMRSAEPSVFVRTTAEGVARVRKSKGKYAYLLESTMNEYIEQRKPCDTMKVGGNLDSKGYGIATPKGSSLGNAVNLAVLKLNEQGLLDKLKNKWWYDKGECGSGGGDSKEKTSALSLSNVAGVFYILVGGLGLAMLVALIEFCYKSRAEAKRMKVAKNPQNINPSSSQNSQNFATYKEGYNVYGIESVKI

Row | Binder | binding result [1] | binding result [2] | binding result [3] | binding result [4]
1 | B1 | no binding | no binding | – | –
2 | B2 | – | – | no binding | no binding
3 | B3 | – | no binding | – | –
